Patent US9206411B2, “Staphylococcal Phage2638A endolysin amidase domain is lytic for Staphylococcus aureus” (priority 2012, dated 2015)

Key:
Assay in all cases: Plate lysis, susceptibility of strains to 2638A (Table 1)
Format in all cases: cell-based
[1] = test system: S. aureus 305
Procedure: (§1) Purified proteins for each construct were diluted in sterile nickel column elution buffer, and 6 μL of lysostaphin (11 μg) or the constructs (0.2 nmoles or ˜11 μg for the repaired construct 2638A 1-180Mut-486) was spotted onto a freshly spread lawn of S. aureus strain NRS119 (SA LinR #12; linezolid resistant) growing cells that had air dried for 30 min on tryptic soy agar (TSA) plates. L=[…] Lysostaphin (Sigma); Spot 1=11 μg; all other constructs are 0.2 nmoles (˜11 μg for the repaired construct 2638A 1-180Mut-486) […]. The spotted plates were air dried for 10 min in a laminar flow hood and incubated overnight in a 37° C. environment. Scoring of the cleared spots occurred within 20 h of plating the cells.
(§2) The Plate Lysis assay results (FIG. 3) agree with the turbidity reduction assay. Each of the M23 peptidase dependent or SH3b-truncating constructs showing weak activity on S. aureus strain Newman strain. In addition to the Plate Lysis results in FIG. 3, we have also examined numerous strains with reduced but real lytic activity (Table 1). However, the plate lysis results with the 2638A endolysin constructs are extremely novel in appearance. Plate lysis results are routinely visualized as a discrete cleared spot on a lawn of bacteria after a single overnight of culture. […] In contrast, the 2638A endolysin is unique in that sometimes this cleared zone requires multiple days to appear. […] Thus, there is also a likelihood that the enzyme might work preferentially on late log or stationary phase cells in the plate lysis assay, as the 3 day old culture is likely not growing as quickly as the freshly-plated overnight culture.

[2] = test system: S. xylosus
Procedure: as §1, §2

[3] = test system: S. aureus Newman Δica
Procedure: as §1, §2

[4] = test system: S. aureus ANG 133
Procedure: as §1, §2

[5] = test system: S. aureus SA113 ΔtagO
Procedure: as §1, §2

[6] = test system: S. aureus Tanji 26
Procedure: as §1, §2

[7] = test system: S. aureus Tanji 2
Procedure: as §1, §2

[8] = test system: S. aureus MN8
Procedure: as §1, §2

[9] = test system: S. aureus Reynolds (CP8)
Procedure: as §1, §2

[10] = test system: S. aureus Tanji 31
Procedure: as §1, §2

[11] = test system: S. aureus ANG 144
Procedure: as §1, §2

[12] = test system: S. aureus Tanji 33
Procedure: as §1, §2

[13] = test system: S. aureus SA113
Procedure: as §1, §2

[14] = test system: S. aureus Newman
Procedure: as §1, §2

[15] = test system: S. aureus Newman ΔtagO
Procedure: as §1, §2

[16] = test system: S. warneri
Procedure: as §1, §2

[17] = test system: S. aureus NRS 385 (MRSA)
Procedure: as §1, §2

[18] = test system: S. aureus Newman sm^r
Procedure: as §1, §2

[19] = test system: S. aureus Tanji 28
Procedure: as §1, §2

[20] = test system: S. aureus Reynolds (CP5)
Procedure: as §1, §2

[21] = test system: S. aureus Reynolds (CP-)
Procedure: as §1, §2

[22] = test system: S. aureus Newman srtA::ermB
Procedure: as §1, §2

B1: 2638A Endolysin: 486 amino acid staphylococcal phage 2638A endolysin (SEQ ID NO:4), C-terminally 6×His-tagged; M23 peptidase, amidase, SH3b domains (protein)
chain: MLTAIDYLTKKGWKISSDPRTYDGYPKNYGYRNYHENGINYDEFCGGYHRAFDVYSNETNDVPAVTSGTVIEANDYGNFGGTFVIRDANDNDWIYGHLQRGSMRFVVGDKVNQGDIIGLQGNSNYYDNPMSVHLHLQLRPKDAKKDEKSQVCSGLAMEKYDITNLNAKQDKSKNGSVKELKHIYSNHIKGNKITAPKPSIQGVVIHNDYGSMTPSQYLPWLYARENNGTHVNGWASVYANRNEVLWYHPTDYVEWHCGNQWANANLIGFEVCESYPGRISDKLFLENEEATLKVAADVMKSYGLPVNRNTVRLHNEFFGTSCPHRSWDLHVGKGEPYTTTNINKMKDYFIKRIKHYYDGGKLEVSKAATIKQSDVKQEVKKQEAKQIVKATDWKQNKDGIWYKAEHASFTVTAPEGIITRYKGPWTGHPQAGVLQKGQTIKYDEVQKFDGHVWVSWETFEGETVYMPVRTWDAKTGKVGKLWGEIKLEHHHHHH
modifications: C-terminal His6 tag; Mutated Phage 2638a
notes: M23 peptidase, amidase, SH3b domains
- Susceptibility to lysis by 2638A, day 1 ([1]; day 1): − (− = >100 pmol)
- Susceptibility to lysis by 2638A, day 3+ ([1]; day 3+): − (− = >100 pmol)
- Susceptibility to lysis by 2638A, day 1 ([2]; day 1): − (− = >100 pmol)
- Susceptibility to lysis by 2638A, day 3+ ([2]; day 3+): − (− = >100 pmol)
- Susceptibility to lysis by 2638A, day 1 ([3]; day 1): − (− = >100 pmol)
- Susceptibility to lysis by 2638A, day 3+ ([3]; day 3+): − (− = >100 pmol)
- Susceptibility to lysis by 2638A, day 1 ([4]; day 1): − (− = >100 pmol)
- Susceptibility to lysis by 2638A, day 3+ ([4]; day 3+): − (− = >100 pmol)
- Susceptibility to lysis by 2638A, day 1 ([5]; day 1): +++ (+++ = 1 pmol)
- Susceptibility to lysis by 2638A, day 3+ ([5]; day 3+): +++ (+++ = 1 pmol)
- Susceptibility to lysis by 2638A, day 1 ([6]; day 1): − (− = >100 pmol)
- Susceptibility to lysis by 2638A, day 3+ ([6]; day 3+): + (+ = 100 pmol)
- Susceptibility to lysis by 2638A, day 1 ([7]; day 1): − (− = >100 pmol)
- Susceptibility to lysis by 2638A, day 3+ ([7]; day 3+): + (+ = 100 pmol)
- Susceptibility to lysis by 2638A, day 1 ([8]; day 1): − (− = >100 pmol)
- Susceptibility to lysis by 2638A, day 3+ ([8]; day 3+): ++ (++ = 10 pmol)
- Susceptibility to lysis by 2638A, day 1 ([9]; day 1): − (− = >100 pmol)
- Susceptibility to lysis by 2638A, day 3+ ([9]; day 3+): − (− = >100 pmol)
- Susceptibility to lysis by 2638A, day 1 ([10]; day 1): − (− = >100 pmol)
- Susceptibility to lysis by 2638A, day 3+ ([10]; day 3+): − (− = >100 pmol)
- Susceptibility to lysis by 2638A, day 1 ([11]; day 1): − (− = >100 pmol)
- Susceptibility to lysis by 2638A, day 3+ ([11]; day 3+): − (− = >100 pmol)
- Susceptibility to lysis by 2638A, day 1 ([12]; day 1): − (− = >100 pmol)
- Susceptibility to lysis by 2638A, day 3+ ([12]; day 3+): + (+ = 100 pmol)
- Susceptibility to lysis by 2638A, day 1 ([13]; day 1): + (+ = 100 pmol)
- Susceptibility to lysis by 2638A, day 3+ ([13]; day 3+): ++ (++ = 10 pmol)
- Susceptibility to lysis by 2638A, day 1 ([14]; day 1): − (− = >100 pmol)
- Susceptibility to lysis by 2638A, day 3+ ([14]; day 3+): − (− = >100 pmol)
- Susceptibility to lysis by 2638A, day 1 ([15]; day 1): +++ (+++ = 1 pmol)
- Susceptibility to lysis by 2638A, day 3+ ([15]; day 3+): +++ (+++ = 1 pmol)
- Susceptibility to lysis by 2638A, day 1 ([16]; day 1): − (− = >100 pmol)
- Susceptibility to lysis by 2638A, day 3+ ([16]; day 3+): − (− = >100 pmol)
- Susceptibility to lysis by 2638A, day 1 ([17]; day 1): − (− = >100 pmol)
- Susceptibility to lysis by 2638A, day 3+ ([17]; day 3+): − (− = >100 pmol)
- Susceptibility to lysis by 2638A, day 1 ([18]; day 1): − (− = >100 pmol)
- Susceptibility to lysis by 2638A, day 3+ ([18]; day 3+): − (− = >100 pmol)
- Susceptibility to lysis by 2638A, day 1 ([19]; day 1): − (− = >100 pmol)
- Susceptibility to lysis by 2638A, day 3+ ([19]; day 3+): − (− = >100 pmol)
- Susceptibility to lysis by 2638A, day 1 ([20]; day 1): − (− = >100 pmol)
- Susceptibility to lysis by 2638A, day 3+ ([20]; day 3+): − (− = >100 pmol)
- Susceptibility to lysis by 2638A, day 1 ([21]; day 1): − (− = >100 pmol)
- Susceptibility to lysis by 2638A, day 3+ ([21]; day 3+): − (− = >100 pmol)
- Susceptibility to lysis by 2638A, day 1 ([22]; day 1): − (− = >100 pmol)
- Susceptibility to lysis by 2638A, day 3+ ([22]; day 3+): − (− = >100 pmol)
